According to publication PMC7060239, “Two distinct modes of DNMT1 recruitment ensure stable maintenance DNA methylation” (Nature Communications, 2020):

T1: PHD finger of human UHRF1 (residues 299–366) (human, UniProt Q96T88 299-366)
T1 construct: UHRF1, human, PHD finger, residues 299–366; also called hPHD; UHRF1 PHD finger; source: recombinant, purified (glutathione Sepharose 4B, HiTrap Q HP, Superdex75); not shown: GST, N-terminal, cleaved; SUMO-1, N-terminal, cleaved
T1 sequence (looked up): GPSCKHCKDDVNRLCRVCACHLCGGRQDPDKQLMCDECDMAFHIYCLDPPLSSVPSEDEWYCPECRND


Target: T1, PHD finger of human UHRF1 (residues …)
Experiment: ITC; hPHD and PAF15_(2-11) or H3 peptides; VP-ITC; 10 mM HEPES-NaOH (pH 7.5), 150 mM NaCl, 0.25 mM TCEP; one-site model
Conditions: both partners purified

| Binder | Kd | binding result |
| --- | --- | --- |
| VRTKADSVPG (peptide, UniProt Q15004 2-11, looked up, PCNA-associated factor 15 (PAF15), human, residues 2–11; begins with 2VRTK5; also called hPAF15_(2-11); PAF15_(2-11); source: synthetic peptide (Toray Research Center)) [human PAF15 (residues 2–11) peptide] | 2.2 ± 0.3 µM |  |
| VRTAADSVPG (peptide, UniProt Q15004 2-11, looked up, PCNA-associated factor 15 (PAF15), human, residues 2–11; also called PAF15 K5A) [hPAF15_(2-11)-K5A peptide] |  | binds |
| ARTKQTARKST (Unmodified free N-terminus assumed (initiator Met removed). Peptide limits are not printed in the supplied text (ITC in Supplementary Fig. 2d). Mature H3 residues 1-11 taken by convention from UHRF1 …) [N-terminal histone H3 peptide] | 1.5 ± 0.1 µM |  |
